Source: patent publication US20250188167A1
Where a chain is given by its changes, count along the chain named. Read-outs that look alike come from different tables or passages of the source. Blank lines part the entries; values can stand above or below the molecule they belong to.

Key:
human B7-H3 (human) [1] = target: human B7-H3 (human) (UniProt Q5ZPR3); assay: cell-based or functional assay
human B7-H3 (human) [2] = target: human B7-H3 (human) (UniProt Q5ZPR3); assay: flow cytometry (FACS) on CHO-K1 cells expressing human B7-H3; goat anti-human IgG (H+L) secondary
human B7-H3 (human) [3] = target: human B7-H3 (human) (UniProt Q5ZPR3); assay: flow cytometry (FACS) on CHO-K1/B7-H3 cells
human B7-H3 (human) [4] = target: human B7-H3 (human) (UniProt Q5ZPR3); assay: cell-based or functional assay; remark: listed apart in the source

Chain of UniProt Q5ZPR3 (Q5ZPR3 29-534): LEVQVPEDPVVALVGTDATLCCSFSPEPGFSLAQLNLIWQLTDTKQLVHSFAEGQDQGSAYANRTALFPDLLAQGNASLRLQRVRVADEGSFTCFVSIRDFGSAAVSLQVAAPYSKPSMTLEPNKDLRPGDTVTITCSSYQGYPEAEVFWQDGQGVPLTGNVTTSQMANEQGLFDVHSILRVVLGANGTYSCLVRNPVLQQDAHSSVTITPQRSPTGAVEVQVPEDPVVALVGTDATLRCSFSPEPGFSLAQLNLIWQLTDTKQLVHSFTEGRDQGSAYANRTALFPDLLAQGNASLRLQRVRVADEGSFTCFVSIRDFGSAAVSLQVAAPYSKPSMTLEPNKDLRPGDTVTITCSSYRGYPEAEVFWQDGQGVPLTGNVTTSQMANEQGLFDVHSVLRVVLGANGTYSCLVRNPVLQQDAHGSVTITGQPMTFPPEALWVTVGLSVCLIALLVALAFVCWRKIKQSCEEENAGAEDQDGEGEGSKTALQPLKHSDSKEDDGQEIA

Molecule: DS-5573a (antibody)
CDC % Relative activity (EC50 of positive control DS-5573a / EC50 of sample) (human B7-H3 (human) [1]): 100% | CDC % Relative activity (EC50 of positive control DS-5573a / EC50 of sample), plate 01 (human B7-H3 (human) [1]): 100% | CDC % Relative activity (EC50 of positive control DS-5573a / EC50 of sample), plate 02 (human B7-H3 (human) [1]): 100% | CDC EC50 (% target cell lysis, Cell Titer-Glo) (human B7-H3 (human) [1]): 0.69 µg/mL | CDC EC50 (% target cell lysis, Cell Titer-Glo), plate 01 (human B7-H3 (human) [1]): 0.595 µg/mL | CDC EC50 (% target cell lysis, Cell Titer-Glo), plate 02 (human B7-H3 (human) [1]): 0.628 µg/mL

Molecule: MGA271 (Enoblituzumab) (antibody)
ADCC % Relative activity (EC50 of positive control MGA-271 / EC50 of sample), plate 01 (human B7-H3 (human) [1]): 100% | ADCC % Relative activity (EC50 of positive control MGA-271 / EC50 of sample), plate 02 (human B7-H3 (human) [1]): 100% | ADCC EC50 (% target cell lysis, LDH; NK92/CD16a-VV effector cells), plate 01 (human B7-H3 (human) [1]): 0.0394 µg/mL | ADCC EC50 (% target cell lysis, LDH; NK92/CD16a-VV effector cells), plate 02 (human B7-H3 (human) [1]): 0.0443 µg/mL | EC50 (human B7-H3 (human) [2]): 102 nM | EC50 (human B7-H3 (human) [3]): 20.8 nM

B2: 31H11B1 (antibody, V domains shown)
VH: QVQLQQPGAELGKPGTSVKLSCKASGYTFTSYWMHWVKQRPGQGLEWIGHINPNSGSTNQNAKFKNKATLTVDESSSTAYMQLSTLTSEDSAVYYCTRSGSNYRRNYFDYWGQGTTLTVSS
VL: DIQMTQSSSYLSVSLGGRVTITCKASDHINNWLAWYQQKPGNAPRLLISGATSLETGVPSRFSGSGSGKDYTLSITSLQTEDVATYYCQQYWSTPLTFGAGTKLELK
EC50 (human B7-H3 (human) [3]): 0.977 nM

B9: 38D6A4 (antibody, V domains shown)
VH: QIQLVQSGPELKKPGEAVKISCKASGSTFTDFGMNWVRQAPGKGLKWMGWINPYSGVPTYADEFKGRFVFSLETSARVAYMQINDLKNEDTATYFCARDDGYHYTMDYWGQGTSVTVSS
VL: DVVMTQTPLPLPVSLGDQASISCRSSQSLIHSNGITYLHWYLQKPGQSPKLLIYKVSNRFSGVPDRFTGSGSGTDFTLKISRVEAEDLGVYFCSQSTHVPWTFGGGSKLEIR
EC50 (human B7-H3 (human) [3]): 1.78 nM

B12: 34A9C12 (antibody, V domains shown)
VH: QIQLVQSGPELKKSGETVKISCKASGFTNYGINWVKQAPGKGLKWMGWINPYSGVPTYADDFKGRFAFSLETSASTAYLQINNLKNEDSATYFCARDDGFHYTMDYWGQGTSVTVSS
VL: B9 VL with M4L, T5I, P10S, S28N, I30V, T68S, H98L, S107T, R112K
EC50 (human B7-H3 (human) [3]): 0.822 nM

B14: 37F11A10 (antibody, V domains shown)
VH: QIQLVQSGPELKKPGETVKISCKASGDTFRNYGMNWVKQAPGKGLKWMGWINPYSGVPTYADDFKGRFAFSLETSASTAFLQINNLKNEDTATYFCARDDGFHYTMDYWGLGTSVTVSS
VL: B9 VL with P10S, I30L, I53T, N58H, T68S, S107T
EC50 (human B7-H3 (human) [3]): 1.38 nM

B15: 38F11B2 (antibody, V domains shown)
VH: B14 VH with D27Y, R30I, N31D, P53I, S77N, F80Y, F102Y, D107N, L111Q
VL: B9 VL with V2I, P10S, I30V, P45S, T68S, D75A, S107T, R112K
EC50 (human B7-H3 (human) [3]): 0.651 nM

Further lines, results first:

EC50 (human B7-H3 (human) [2]): 81.6 nM
Molecule: MGA271-hIgG1 (antibody)

EC50 (human B7-H3 (human) [3]): 0.751 nM
B1: 47F3F10B4 (antibody, V domains shown)
VH: EVQLQQSGPELVKPGASVKMSCKASGYTFTDHYMHWVKQSHGKSLEWIGYIFPNNGVSGYNQNFKDKATLTVDKSSSTAYMDLRSLTPEDSAVYYCTRRQLGLGTMDYWGQGTSVTVSS
VL: DIVLTQSPASLAVSLGQRATISCRASKSVSTSGYNYMHWYQQKPGQPPKLLIYLASNLESGVPARFSGSGSGTDFTLNIHPVEEEDAATYYCQHSKELPWTFGGGTKLEIK

EC50 (human B7-H3 (human) [2]): 0.299 nM | CDC % Relative activity (EC50 of positive control DS-5573a / EC50 of sample), plate 02 (human B7-H3 (human) [4]): 445% | CDC EC50 (% target cell lysis, Cell Titer-Glo), plate 02 (human B7-H3 (human) [4]): 0.141 µg/mL
B3: 47F3F10B4-VH1-VL4(IgG1m) (antibody)
heavy: QVQLVQSGAEVKKPGASVKVSCKASGYTFTDHYMHWVRQAPGQGLEWMGYIFPNNGVSGYNQNFKDRVTMTRDTSISTAYMELSRLRSDDTAVYYCARRQLGLGTMDYWGQGTLVTVSSASTKGPSVFPLAPSSKSTSGGTAALGCLVKDYFPEPVTVSWNSGALTSGVHTFPAVLQSSGLYSLSSVVTVPSSSLGTQTYICNVNHKPSNTKVDKRVEPKSCDKTHTCPPCPAPELVGGPSVFLLPPKPKDTLMISRTPEVTCVVVDVSHEDPEVKFNWYVDGVEVHNAKTKPPEEQYNSTLRVVSVLTVLHQDWLNGKEYKCKVSNKALPAPIEKTISKAKGQPREPQVYTLPPSREEMTKNQVSLTCLVKGFYPSDIAVEWESNGQPENNYKTTPLVLDSDGSFFLYSKLTVDKSRWQQGNVFSCSVMHEALHNHYTQKSLSLSPGK
light: DIQMTQSPSSLSASVGDRVTITCRASKSVSTSGYNYMHWYQQKPGKAPKLLIYLASNLESGVPSRFSGSGSGTDFTLTISSLQPEDFATYYCQHSKELPWTFGQGTKVEIKRTVAAPSVFIFPPSDEQLKSGTASVVCLLNNFYPREAKVQWKVDNALQSGNSQESVTEQDSKDSTYSLSSTLTLSKADYEKHKVYACEVTHQGLSSPVTKSFNRGEC

EC50 (human B7-H3 (human) [2]): 0.339 nM | CDC % Relative activity (EC50 of positive control DS-5573a / EC50 of sample), plate 01 (human B7-H3 (human) [4]): 155% | CDC EC50 (% target cell lysis, Cell Titer-Glo), plate 01 (human B7-H3 (human) [4]): 0.384 µg/mL
B4: 12C9F1B5-VH4-VL2 (antibody, human IgG1, kappa, V domains shown)
VH: QVQLVQSGAEVKKPGASVKVSCKASGFTNYGMNWVRQAPGQRLEWMGWINPYSGVPTYADDFKGRVTITRDTSASTAYMELSSLRSEDTAVYYCARDDGFHYTMDYWGQGTLVTVSS
VL: DIVMTQSPLSLPVTPGEPASISCRSSQNLVHSNGITYLHWYLQKPGQSPQLLIYKVSNRFSGVPDRFSGSGSGTDFTLKISRVEAEDVGVYYCSQSTLVPWTFGQGTKVEIKR

EC50 (human B7-H3 (human) [2]): 0.155 nM | CDC % Relative activity (EC50 of positive control DS-5573a / EC50 of sample), plate 01 (human B7-H3 (human) [4]): 104% | CDC EC50 (% target cell lysis, Cell Titer-Glo), plate 01 (human B7-H3 (human) [4]): 0.57 µg/mL
B5: 43H11G12-VH4-VL2 (antibody, human IgG1, kappa, V domains shown)
VH: QVQLVQSGAEVKKPGASVKVSCKASGYNFRDFGMNWVRQAPGQRLEWMGWLNSYSGVPTYADDFKGRVTITRDTSASTAYMELSSLRSEDTAVYYCARDDGYNYTMNYWGQGTLVTVSS
VL: B4 VL with N28S, L98H

EC50 (human B7-H3 (human) [2]): 0.153 nM
B6: 12C9F1B5-VH2.1-VL2 (antibody, human IgG1, kappa, V domains shown)
VH: B4 VH with R42G, I68M, A74I, S83R, E87D
VL: B4 VL

EC50 (human B7-H3 (human) [2]): 0.767 nM
B7: 47F3F10B4-VH2-VL4 (antibody, human IgG1, kappa, V domains shown)
VH: QVQLVQSGAEVKKPGASVKVSCKASGYTFTDHYMHWVRQAPGQGLEWMGYIFPNNGVSGYNQNFKDRVTMTRDTSTSTVYMELSSLRSEDTAVYYCARRQLGLGTMDYWGQGTLVTVSS
VL: DIQMTQSPSSLSASVGDRVTITCRASKSVSTSGYNYMHWYQQKPGKAPKLLIYLASNLESGVPSRFSGSGSGTDFTLTISSLQPEDFATYYCQHSKELPWTFGQGTKVEIKR

EC50 (human B7-H3 (human) [3]): 4.76 nM
B8: 12C9F1B5 (antibody, V domains shown)
VH: B12 VH with S14P, I32M, S89T
VL: B9 VL with M4L, P10S, S28N, I30V, T68S, K79T, H98L, S107T, R112K

EC50 (human B7-H3 (human) [3]): 0.909 nM
B10: 37D11F5B8 (antibody, V domains shown)
VH: B14 VH with Y32N, F102Y, Y108F
VL: B9 VL with P10S, I30V, I53T, N58H, T68S, S107T, R112K

EC50 (human B7-H3 (human) [3]): 0.87 nM
B11: 47C7E3 (antibody, V domains shown)
VH: QIQLVQSGPELKKPGETVKISCKASGYTFTNFGMNWVKQAPGKGLKWMGWIYTPSGVPIYADDFKGRFAVSLETSASTAYLQINNLKNEDTATYFCARDDGYYYTMDYWGQGTSVTVSS
VL: B9 VL with V2D, P10S, Q18H, I30V, I35D, T68S, S107T, R112K

EC50 (human B7-H3 (human) [3]): 6.38 nM
B13: 43H11G12 (antibody, V domains shown)
VH: QIQLVQSGPELKKPGETVKISCKASGYNFRDFGMNWVKQAPGKGLKWMGWLNSYSGVPTYADDFKGRFVLSLETSASTAYLQINNLINEDTATYFCGRDDGYNYTMNYWGQGTSVTVSS
VL: B9 VL with T7A, P10S, I30V, K44R, P45A, K50Q, T68S, S107T, R112K
